{"source": "paper doi:10.1101/2021.09.16.460654", "biological_target": "S. aureus FakA (S. aureus)", "data": [{"substance": "FakB1(A121I) (from UniProt X5EH37 1-288) (natural protein)", "values": [{"measurement": "apparent KM for FakB1(A121I) in the FA kinase assay (0.2 µM FakA, [14C]16:0)", "result": 0.1, "unit": "µM"}]}, {"substance": "FakB1(A158L) (from UniProt X5EH37 1-288) (natural protein)", "values": [{"measurement": "apparent KM for FakB1(A158L) in the FA kinase assay (0.2 µM FakA, [14C]16:0)", "result": 0.13, "unit": "µM"}]}, {"substance": "S. aureus wild-type FakB1 (from UniProt X5EH37 1-288) (natural protein)", "values": [{"measurement": "apparent KM for FakB1 in the FA kinase assay (0.2 µM FakA, [14C]16:0)", "result": 0.13, "unit": "µM"}]}]}
